From IntAct's records for PubMed 31515488

B1: BUD13 homolog (Homo sapiens), Q9BRD0 (parent)
chain: MAAAPPLSKAEYLKRYLSGADAGVDRGSESGRKRRKKRPKPGGAGGKGMRIVDDDVSWTAISTTKLEKEEEEDDGDLPVVAEFVDERPEEVKQMEAFRSSAKWKLLGGHNEDLPSNRHFRHDTPDSSPRRVRHGTPDPSPRKDRHDTPDPSPRRARHDTPDPSPLRGARHDSDTSPPRRIRHDSSDTSPPRRARHDSPDPSPPRRPQHNSSGASPRRVRHDSPDPSPPRRARHGSSDISSPRRVHNNSPDTSRRTLGSSDTQQLRRARHDSPDLAPNVTYSLPRTKSGKAPERASSKTSPHWKESGASHLSFPKNSKYEYDPDISPPRKKQAKSHFGDKKQLDSKGDCQKATDSDLSSPRHKQSPGHQDSDSDLSPPRNRPRHRSSDSDLSPPRRRQRTKSSDSDLSPPRRSQPPGKKAAHMYSGAKTGLVLTDIQREQQELKEQDQETMAFEAEFQYAETVFRDKSGRKRNLKLERLEQRRKAEKDSERDELYAQWGKGLAQSRQQQQNVEDAMKEMQKPLARYIDDEDLDRMLREQEREGDPMANFIKKNKAKENKNKKVRPRYSGPAPPPNRFNIWPGYRWDGVDRSNGFEQKRFARLASKKAVEELAYKWSVEDM
partner: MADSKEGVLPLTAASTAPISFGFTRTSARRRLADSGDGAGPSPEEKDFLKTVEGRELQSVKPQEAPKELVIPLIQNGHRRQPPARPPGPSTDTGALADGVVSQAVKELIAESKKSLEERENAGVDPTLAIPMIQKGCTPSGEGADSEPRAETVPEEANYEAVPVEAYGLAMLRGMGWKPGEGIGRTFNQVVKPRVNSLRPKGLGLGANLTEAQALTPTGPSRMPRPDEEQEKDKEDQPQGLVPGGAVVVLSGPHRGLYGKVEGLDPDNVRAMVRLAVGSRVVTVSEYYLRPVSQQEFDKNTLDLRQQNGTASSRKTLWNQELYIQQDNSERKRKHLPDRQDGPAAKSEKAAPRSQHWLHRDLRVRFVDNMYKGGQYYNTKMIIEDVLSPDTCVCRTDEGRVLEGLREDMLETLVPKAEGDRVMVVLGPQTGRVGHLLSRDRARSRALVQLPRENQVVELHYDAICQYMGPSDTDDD
B2: E3 ubiquitin-protein ligase CCNB1IP1 (Homo sapiens), Q9NPC3 (parent)
chain: MSLCEDMLLCNYRKCRIKLSGYAWVTACSHIFCDQHGSGEFSRSPAICPACNSTLSGKLDIVRTELSPSEEYKAMVLAGLRPEIVLDISSRALAFWTYQVHQERLYQEYNFSKAEGHLKQMEKIYTQQIQSKDVELTSMKGEVTSMKKVLEEYKKKFSDISEKLMERNRQYQKLQGLYDSLRLRNITIANHEGTLEPSMIAQSGVLGFPLGNNSKFPLDNTPVRNRGDGDGDFQFRPFFAGSPTAPEPSNSFFSFVSPSRELEQQQVSSRAFKVKRI
B3: Homeobox protein PKNOX1 (Homo sapiens), P55347 (parent)
chain: MMATQTLSIDSYQDGQQMQVVTELKTEQDPNCSEPDAEGVSPPPVESQTPMDVDKQAIYRHPLFPLLALLFEKCEQSTQGSEGTTSASFDVDIENFVRKQEKEGKPFFCEDPETDNLMVKAIQVLRIHLLELEKVNELCKDFCSRYIACLKTKMNSETLLSGEPGSPYSPVQSQQIQSAITGTISPQGIVVPASALQQGNVAMATVAGGTVYQPVTVVTPQGQVVTQTLSPGTIRIQNSQLQLQLNQDLSILHQDDGSSKNKRGVLPKHATNVMRSWLFQHIGHPYPTEDEKKQIAAQTNLTLLQVNNWFINARRRILQPMLDSSCSETPKTKKKTAQNRPVQRFWPDSIASGVAQPPPSELTMSEGAVVTITTPVNMNVDSLQSLSSDGATLAVQQVMMAGQSEDESVDSTEEDAGALAPAHISGLVLENSDSLQ
B4: Notch homolog 2 N-terminal-like protein A (Homo sapiens), Q7Z3S9 (parent)
chain: MCVTYHNGTGYCKCPEGFLGEYCQHRDPCEKNRCQNGGTCVAQAMLGKATCRCASGFTGEDCQYSTSHPCFVSRPCLNGGTCHMLSRDTYECTCQVGFTGKECQWTDACLSHPCANGSTCTTVANQFSCKCLTGFTGQKCETDVNECDIPGHCQHGGTCLNLPGSYQCQCLQGFTGQYCDSLYVPCAPSPCVNGGTCRQTGDFTFECNCLPETVRRGTELWERDREVWNGKEHDEN
partner: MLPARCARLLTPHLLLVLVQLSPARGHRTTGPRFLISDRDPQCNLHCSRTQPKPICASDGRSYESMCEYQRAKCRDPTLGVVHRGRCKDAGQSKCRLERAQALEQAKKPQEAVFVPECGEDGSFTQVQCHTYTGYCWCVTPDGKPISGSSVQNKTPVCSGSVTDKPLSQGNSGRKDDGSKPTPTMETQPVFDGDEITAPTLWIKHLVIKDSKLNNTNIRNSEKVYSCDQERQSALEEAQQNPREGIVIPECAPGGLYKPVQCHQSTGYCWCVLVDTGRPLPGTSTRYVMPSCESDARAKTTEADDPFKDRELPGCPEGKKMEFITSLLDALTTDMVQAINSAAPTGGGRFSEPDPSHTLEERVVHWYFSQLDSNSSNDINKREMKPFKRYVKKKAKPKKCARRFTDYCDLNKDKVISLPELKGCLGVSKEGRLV
B5: TBC1 domain family member 7 (Homo sapiens), Q9P0N9 (parent)
chain: MTEDSQRNFRSVYYEKVGFRGVEEKKSLEILLKDDRLDTEKLCTFSQRFPLPSMYRALVWKVLLGILPPHHESHAKVMMYRKEQYLDVLHALKVVRFVSDATPQAEVYLRMYQLESGKLPRSPSFPLEPDDEVFLAIAKAMEEMVEDSVDCYWITRRFVNQLNTKYRDSLPQLPKAFEQYLNLEDGRLLTHLRMCSAAPKLPYDLWFKRCFAGCLPESSLQRVWDKVVSGSCKILVFVAVEILLTFKIKVMALNSAEKITKFLENIPQDSSDAIVSKAIDLWHKHCGTPVHSS
B6: Syntenin-2 (Homo sapiens), Q9H190 (parent)
chain: MSSLYPSLEDLKVDQAIQAQVRASPKMPALPVQATAISPPPVLYPNLAELENYMGLSLSSQEVQESLLQIPEGDSTAVSGPGPGQMVAPVTGYSLGVRRAEIKPGVREIHLCKDERGKTGLRLRKVDQGLFVQLVQANTPASLVGLRFGDQLLQIDGRDCAGWSSHKAHQVVKKASGDKIVVVVRDRPFQRTVTMHKDSMGHVGFVIKKGKIVSLVKGSSAARNGLLTNHYVCEVDGQNVIGLKDKKIMEILATAGNVVTLTIIPSVIYEHMVKKLPPVLLHHTMDHSIPDA
partner: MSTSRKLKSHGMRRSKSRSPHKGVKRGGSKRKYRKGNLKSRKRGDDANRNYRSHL

Variants of: B1
Conditions: with gpkow_human GPKOW

Row | effect of a mutation on the interaction | Variant
1 | with no effect | P148L

Variants of: B2
Conditions: with aapk2_human PRKAA2, P54646
Chain of aapk2_human PRKAA2, P54646 (P54646 whole entry, looked up): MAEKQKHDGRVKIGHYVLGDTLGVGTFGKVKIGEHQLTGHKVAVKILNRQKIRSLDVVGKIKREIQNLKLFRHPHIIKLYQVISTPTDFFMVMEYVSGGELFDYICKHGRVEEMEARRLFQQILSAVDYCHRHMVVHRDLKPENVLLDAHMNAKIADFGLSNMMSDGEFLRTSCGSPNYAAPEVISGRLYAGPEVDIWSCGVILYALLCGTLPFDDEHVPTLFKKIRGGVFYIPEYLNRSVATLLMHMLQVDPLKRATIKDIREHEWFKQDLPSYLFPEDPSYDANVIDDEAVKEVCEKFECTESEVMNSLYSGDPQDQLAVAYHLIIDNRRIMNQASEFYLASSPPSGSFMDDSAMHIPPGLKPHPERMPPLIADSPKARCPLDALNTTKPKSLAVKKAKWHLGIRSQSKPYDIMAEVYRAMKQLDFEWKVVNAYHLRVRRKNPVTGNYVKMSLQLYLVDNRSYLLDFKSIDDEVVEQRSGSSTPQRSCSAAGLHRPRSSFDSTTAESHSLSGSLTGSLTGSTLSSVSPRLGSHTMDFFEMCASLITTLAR

Row | effect of a mutation on the interaction | Variant
2 | with no effect | F41L
3 | disrupting interaction strength | R104H
4 | with no effect | Y106H
5 | with no effect | T187A
6 | with no effect | N212D

Variants of: B2
Conditions: with KRT15, P19012
Chain of KRT15, P19012 (P19012 whole entry): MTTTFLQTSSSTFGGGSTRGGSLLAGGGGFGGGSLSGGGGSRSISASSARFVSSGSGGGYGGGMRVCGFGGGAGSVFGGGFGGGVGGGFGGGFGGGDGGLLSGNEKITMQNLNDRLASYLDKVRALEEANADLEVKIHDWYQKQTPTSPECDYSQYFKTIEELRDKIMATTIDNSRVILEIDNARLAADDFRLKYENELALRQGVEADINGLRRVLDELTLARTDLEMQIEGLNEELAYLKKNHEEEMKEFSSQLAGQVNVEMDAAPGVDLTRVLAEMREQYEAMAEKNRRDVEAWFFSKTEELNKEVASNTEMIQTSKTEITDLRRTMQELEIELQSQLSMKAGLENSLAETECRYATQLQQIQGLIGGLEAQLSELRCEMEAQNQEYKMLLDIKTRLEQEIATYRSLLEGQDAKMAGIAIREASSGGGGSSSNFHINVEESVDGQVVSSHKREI

Row | effect of a mutation on the interaction | Variant
7 | with no effect | F41L
8 | with no effect | R104H
9 | disrupting interaction strength | Y106H
10 | with no effect | T187A
11 | with no effect | N212D

Variants of: B2
Conditions: with keap1_human KEAP1, Q14145
Chain of keap1_human KEAP1, Q14145 (Q14145 whole entry): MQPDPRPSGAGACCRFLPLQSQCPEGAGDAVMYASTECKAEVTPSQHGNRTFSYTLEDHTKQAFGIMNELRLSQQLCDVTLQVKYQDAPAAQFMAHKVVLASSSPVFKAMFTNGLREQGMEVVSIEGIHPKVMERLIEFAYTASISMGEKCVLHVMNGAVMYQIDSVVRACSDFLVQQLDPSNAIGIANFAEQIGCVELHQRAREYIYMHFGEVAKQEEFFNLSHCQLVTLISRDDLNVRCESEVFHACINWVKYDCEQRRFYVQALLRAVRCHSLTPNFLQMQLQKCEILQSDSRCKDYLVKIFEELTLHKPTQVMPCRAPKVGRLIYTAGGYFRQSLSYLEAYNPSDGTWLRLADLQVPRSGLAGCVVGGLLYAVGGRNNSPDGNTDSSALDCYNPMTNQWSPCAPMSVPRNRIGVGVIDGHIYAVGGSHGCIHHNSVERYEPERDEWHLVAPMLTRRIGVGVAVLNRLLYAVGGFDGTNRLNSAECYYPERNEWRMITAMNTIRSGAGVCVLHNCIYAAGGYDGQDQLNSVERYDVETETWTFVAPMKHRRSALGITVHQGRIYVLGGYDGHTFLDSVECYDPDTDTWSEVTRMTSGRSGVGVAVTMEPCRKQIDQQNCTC

Row | effect of a mutation on the interaction | Variant
12 | with no effect | F41L
13 | with no effect | R104H
14 | with no effect | Y106H
15 | with no effect | T187A
16 | with no effect | N212D

Variants of: B3
Conditions: with vp37c_human VPS37C

Row | effect of a mutation on the interaction | Variant
17 | with no effect | V265I
18 | with no effect | E103D

Variants of: B3
Conditions: with vp37c_human VPS37C
Remark: another data set of the same source

Row | effect of a mutation on the interaction | Variant
19 | with no effect | V265I

Variants of: B4
Conditions: with smoc1_human SMOC1, Q9H4F8

Row | effect of a mutation on the interaction | Variant
20 | with no effect | R74Q
21 | with no effect | A115T

Variants of: B5
Conditions: with hook1_human HOOK1, Q9UJC3
Chain of hook1_human HOOK1, Q9UJC3 (Q9UJC3 whole entry): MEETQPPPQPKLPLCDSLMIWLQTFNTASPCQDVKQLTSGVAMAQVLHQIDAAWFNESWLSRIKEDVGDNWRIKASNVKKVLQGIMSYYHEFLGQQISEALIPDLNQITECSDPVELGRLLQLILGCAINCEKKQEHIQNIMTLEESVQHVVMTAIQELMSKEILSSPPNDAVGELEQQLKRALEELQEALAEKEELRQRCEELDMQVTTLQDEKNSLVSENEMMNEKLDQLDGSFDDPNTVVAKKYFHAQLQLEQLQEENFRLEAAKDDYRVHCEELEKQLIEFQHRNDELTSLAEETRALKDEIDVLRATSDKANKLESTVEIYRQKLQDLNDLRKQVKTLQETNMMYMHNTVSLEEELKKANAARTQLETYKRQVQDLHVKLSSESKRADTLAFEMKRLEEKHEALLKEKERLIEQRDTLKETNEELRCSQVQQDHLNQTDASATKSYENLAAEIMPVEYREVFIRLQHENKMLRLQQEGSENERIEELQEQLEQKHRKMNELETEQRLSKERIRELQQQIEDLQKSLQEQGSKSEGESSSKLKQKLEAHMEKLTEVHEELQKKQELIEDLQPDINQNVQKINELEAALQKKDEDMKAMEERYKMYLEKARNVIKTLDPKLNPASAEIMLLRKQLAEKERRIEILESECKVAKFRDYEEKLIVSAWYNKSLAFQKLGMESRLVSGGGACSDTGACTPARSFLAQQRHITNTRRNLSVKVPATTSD

Row | effect of a mutation on the interaction | Variant
22 | disrupting interaction strength | L67W

Variants of: B5
Conditions: with KRT19, P08727
Chain of KRT19, P08727 (P08727 whole entry): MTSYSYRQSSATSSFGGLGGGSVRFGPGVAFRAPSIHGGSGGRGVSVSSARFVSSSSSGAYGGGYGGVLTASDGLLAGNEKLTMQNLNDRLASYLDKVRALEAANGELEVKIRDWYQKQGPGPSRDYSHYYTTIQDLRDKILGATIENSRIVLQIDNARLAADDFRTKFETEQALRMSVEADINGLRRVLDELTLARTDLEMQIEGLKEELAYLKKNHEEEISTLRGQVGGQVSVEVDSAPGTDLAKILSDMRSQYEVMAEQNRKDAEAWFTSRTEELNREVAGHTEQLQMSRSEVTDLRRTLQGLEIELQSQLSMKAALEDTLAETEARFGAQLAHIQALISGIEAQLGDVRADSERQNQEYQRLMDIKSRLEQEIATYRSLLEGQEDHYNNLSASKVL

Row | effect of a mutation on the interaction | Variant
23 | disrupting interaction strength | L67W

Variants of: B6
Conditions: with stp1_human TNP1, P09430

Row | effect of a mutation on the interaction | Variant
24 | disrupting interaction strength | V182M
25 | disrupting interaction strength | G225R
26 | disrupting interaction strength | G242R
